Laboratory results from article PMC5414047.

Experiments:
[1] = molecular target: TβRII (TGF-β type II receptor) (UniProt P37173); test: Flag-FAF1 co-IP, immunoblot; details: reference: wild type; sites S582
[2] = molecular target: VCP (valosin-containing protein) (UniProt P55072); test: Flag-FAF1 co-IP, immunoblot; details: reference: wild type; sites S582

## FAF1 (FAS-associated factor 1) (from UniProt Q9UNN5) S582A
[1]
  binding against the reference: stronger
[2]
  binding against the reference: stronger
